Source: the supplement of paper PMC10567573

B1: ESRRG (parent)
chain: YSCPATNECEITKRRRKSCQACRF

Variants of: B1
Experiment: protein stability index of a GFP-peptide fusion (GPS, HEK-293T) (PSI 1-6); higher = more stable
Details: c terminus: a fixed tail appended
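Also: lentivirally expressed fusions sorted by FACS into six bins by GFP to DsRed ratio, PSI derived from sequencing read proportions per bin multiplied by bin number.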

Protein stability index: each site, then its substitutions
K13: V 3.59 | G 3.16 | I 3.15 | D 3.68 | Q 3.45 | P 3.46 | M 3.15 | E 3.45 | W 2.52 | C 3.56
E8: Y 2.32 | A 3.46 | M 2.88 | F 1.91 | T 3.25 | S 2.97 | H 3.14 | R 3.13
R23: M 3.04 | A 3.1 | S 3.22 | I 2.59 | D 3.88 | L 2.73 | E 4.02 | N 3.92 | K 3.33 | C 3.71 | W 2.09
R16: W 3.06 | C 3.72 | S 3.8 | M 3.07 | Q 3.66 | A 3.48 | V 3.32 | F 2.92
S2: R 4.17 | Q 2.55 | F 3 | V 2.23 | I 1.92 | M 3.27 | P 2.98 | G 3.58 | A 2.1
Q20: C 2.67 | R 3.49 | V 2.78 | F 1.91 | I 2.2 | T 2.93 | M 2.86 | K 3.92 | A 3.52 | E 3.62 | H 2.67
Y1: K 3.92 | H 3.8 | F 3.36 | P 4.32 | I 3.6 | T 4.35 | D 4.05 | G 4.02 | W 3.11
R15: F 2.96 | G 3.91 | I 3.32 | N 3.62 | W 2.81 | V 3.22 | K 2.91 | C 3.46 | L 2.79 | P 3.28 | M 2.96
C19: R 3.72 | A 3.83 | S 3.54 | V 3.27 | N 3.82 | I 2.94 | G 3.55 | D 4.09 | M 3.42 | L 3.14
A5: T 2.78 | K 3.36 | E 3.73 | G 3.58 | S 3.33 | V 3.03 | M 3 | N 3.27 | I 3.01 | H 3.73 | D 3.38
F24: Q 3.7 | W 2.88 | N 4.28 | C 3.62 | D 4.07 | K 4.41 | V 4 | R 3.41 | M 3.89 | E 4.19
C22: H 3.5 | M 2.9 | A 3.47 | D 4.07 | E 3.49 | V 3.66 | L 3.71 | N 4.09 | W 2.94 | Y 3.01
K17: L 3.06 | D 3.37 | Q 3.29 | M 3.06 | G 3.51 | W 2.83 | I 3.51 | F 2.69 | A 3.17 | E 3.63
E10: M 2.9 | C 3.06 | A 3.27 | S 3.14 | Y 2.39 | D 3.34 | H 3.08 | R 3.44 | N 3.41 | K 3.41
T12: F 2.19 | S 3.46 | V 3.33 | L 2.71 | K 3.27 | A 3.32 | H 4.38
T6: M 3.38 | I 3.31 | Y 2.29 | G 3.65 | S 3.1 | F 2.47 | H 3.65 | L 3.1 | D 3.71 | A 3.13
N7: D 3.31 | Y 2.06 | L 2.74 | E 3.19 | G 3.29 | R 3.56 | F 2.52 | P 3.55
P4: E 3.2 | F 2.39 | H 2.91 | W 1.47 | R 3.09 | G 2.93 | D 3.48 | L 2.64 | C 2.92 | V 3.09
S18: N 3.44 | Q 3.6 | P 3.66 | T 3.59 | C 3.31 | A 3.58 | D 3.6 | W 2.93 | M 3.38 | F 2.9 | R 3.8 | K 3.51 | Y 2.87
R14: E 3.62 | H 4.23 | V 3.03 | M 3.09 | F 3.19 | Q 3.48 | S 3.6 | W 3.11
C9: M 3.59 | R 3.38 | W 2.54 | E 3.79 | V 3.46 | I 3.48 | L 3.08 | T 3.61
C3: K 3.83 | H 2.7 | P 3.58 | T 3.99 | E 4.09 | Y 3.81 | R 3.05 | M 3.55 | Q 3.62 | A 4.23 | N 3.79 | V 4.16
I11: L 2.88 | N 3.55 | P 3.58 | K 3.25 | Y 3.04 | R 3.37
A21: W 2.55 | N 3.41 | R 3.49 | Y 3.16 | V 3.2 | I 2.54
